Measured values from US10704064B2, “Recombinant yeast producing 3-hydroxypropionic acid and method for producing 3-hydroxypropionic acid using the same” (SK Innovation Co., Ltd., priority 2014, dated 2020).

Key:
[1] = system: S. cerevisiae VSK-128 ACS2 deletion strain; experiment: AADH in vivo growth assay, ACS2 deletion strain on glucose-based agar plates; assay type: cell-based
Text: All copies of the ACS2 gene were deleted from the industrial S. cerevisiae VSK-128 strain in order to generate a strain with a defective PDH-bypass that was incapable of growth on glucose-based medium. Expression vectors carrying the 25 different AADH variants were then transformed into this ACS2 deletion strain to evaluate their ability to recover the growth of this strain on glucose.
There was a good correlation between the in vitro AADH enzyme activity assays and the in vivo growth recovery analyses.

AADH = AADH in vitro enzyme activity assay from yeast cell lysates; assay type: biochemical; conditions: for AADH activity: in vitro, expressed in yeast
Procedure: AADH activity was measured as described by Kozak et al. (2014, Metab. Eng. 21:46-59) by monitoring the reduction of NAD^+ at 340 nm at 30° C. The yeast cells for the cell lysates were collected, washed with water, and then resuspended into lysis buffer containing 100 mM Tris-HCl buffer (pH 7.5) and 1×EDTA free protease inhibitor cocktail (Roche). The cells were lysed with glass beads in a Precellys 24 homogenizer at 5500 rpm for 3×40 seconds and kept on ice between rounds. Lysates were centrifuged at 16 000 g for 20 min at 4° C. and supernatants were collected. The total protein concentration was determined using the Bradford method.
The enzyme assay reaction mixture contained 0.1 mM Coenzyme A, 50 mM CHES buffer (pH 9.5), 0.8 mM NAD^+, 0.2 mM DTT and 10 μL of cell extract in a total reaction volume of 200 μL. The reaction was started by adding 10 mM of freshly prepared acetaldehyde solution and reduction of NAD^+ was followed with a Thermo Konelab 20XT analyser.
Five AADH genes were originally chosen (i.e. ADHEpm, ADHEec, EUTec, EUTdz and LIN1129li) and transformed into the CEN.PK lab strain. These AADHs were expressed from a multicopy plasmid where they were under control of the TEF1 promoter.
Twenty additional novel AADH genes were chosen from the genome mining analyses to be evaluated for expression and enzyme activity in yeast.

B1: AADHtl: eutE type AADH of Thauera linaloolentis DSM 12138, GenBank ENO90114.1 (protein)
chain: MVDIDLKNVEQIVRTVLASMQTQPQAVQPAAGRRAAPGVFTELDDAVAEASTAQRAIRNLATRVKVVEAIRKAAEAHARELAELAVAETGMGRVEDKFAKNVSQARHTPGVECLAPTALTGDRGLTLIENAAWGVIASVTPSTNPAATIINNAISMISAGNTVVFAPHPAAKKVSQRTVSLLNEASVAAGGPDNVVTTVLNPDIATAQRLFSYPGIHLLTVTGGEAVVEAARKHTDKRLIAAGAGNPPVVVDETADLARAARDIVWGASFDNNIICVDEKEIIVVDRVCDALKTEMARHKAVELTPDQGKRLVDVLLNYVGADGRGTVSRDWVGRDAAKIAAAIGLEVPADTRLLYIETPADHPFAVTELMMPVIPVVRAPDVDAAIDLAVKLEGNCRHTAAMHSRNIDALDRMANAINTSIFVKNGPCLAGLGFGGEGWTTMTISTPTGEGVTSARTFVRLRRCVLVDHFRIV
modifications: AADHtl
recovery of the growth deficiency of the ACS2-deletion strain [1]: capable of recovering the growth deficiency

B2: ADHEpm: adhE type AADH of Piromyces sp. E2, GenBank AY282576.1 (protein)
chain: MSGLQMFQNLSLYGSLAEIDTSEKLNEAMDKLTAAQEQFREYNQEQVDKIFKAVALAASQNRVAFAKYAHEETQKGVFEDKVIKNEFAADYIYHKYCNDKTAGIIEYDEANGLMEIAEPVGPVVGIAPVTNPTSTIIYKSLIALKTRNCIIFSPHPGAHKASVFVVKVLHQAAVKAGAPENCIQIIFPKMDLTTELLHHQKTRFIWATGGPGLVHASYTSGKPALGGGPGNAPALIDETCDMNEAVGSIVVSKTFDCGMICATENAVVVVESVYENFVATMKKRGAYFMTPEETKKASNLLFGEGMRLNAKAVGQTAKTLAEMAGFEVPENTVVLCGEASEVKFEEPMAHEKLTTILGIYKAKDFDDGVRLCKELVTFGGKGHTAVLYTNQNNKDRIEKYQNEVPAFHILVDMPSSLGCIGDMYNFRLAPALTITCGTMGGGSSSDNIGPKHLLNIKRVGMRRENMLWFKIPKSVYFKRAILSEALSDLRDTHKRAIIITDRTMTMLGQTDKIIKACEGHGMVCTVYDKVVPDPTIKCIMEGVNEMNVFKPDLAIALGGGSAMDAAKMMRLFYEYPDQDLQDIATRFVDIRKRVVGCPKLGRLIKTLVCIPTTSGTGAEVTPFAVVTSEEGRKYPLVDYELTPDMAIVDPEFAVGMPKRLTSWTGIDALTHAIESYVSIMATDFTRPYSLRAVGLIFESLSLAYNNGKDIEAREKMHNASAIAGMAFANAFLGCCHSVAHQLGSVYHIPHGLANALMLSHIIKYNATDSPVKMGTFPQYKYPQAMRHYAEIAELLLPPTQVVKMTDVDKVQYLIDRVEQLKADVGIPKSIKETGMVTEEDFFNKVDQVAIMAFDDQCTGANPRYPLVSELKQLMIDAWNGVVPKL
modifications: ADHEpm
AADH activity (AADH): showed AADH activity

B3: AADHmm: eutE type AADH of Morganella morganii SC01, GenBank EMP53767.1 (protein)
chain: MDQKEIENVVKAVLASMSAGTQPAAASAAPQQAAASQNNGFGVFESLDDAVLAAKEAQKSLKTVEMRNLCIGAIRRAATEHARELAVLAVEETGMGRVEDKLAKNLAQANGTPGVECLRPEVLTGDHGLTLIENAAWGVIASVTPSTNPAATAINNAISMIAGGNSVIFAPHPAAKKVSQRTITILNEAIVAAGGPNNLLVTVAKPDIETAQRLFKYPGIGLLVVTGGDAVVESARKHTNKRLIAAGAGNPPVVVDETADIERAAKAIVHGASFDNNIICADEKVLIAVDCIADKLITEMQRNHAVLLTREQSEKLIPVLLKNVDETGHGTVSRDWVGRDAAKIAAAIGMTVPADTRLLIAETDCKHPFAVTELMMPVLPIIRVKDVDQAIDLAVKLEGGCHHTAAMHSNNISNLNRMANAIDTSIFVKNGPCIAGLGLGGEGWTTMTITTPTGEGVTCARTFVRLRRCTMVDSFRIV
modifications: AADHmm
recovery of the growth deficiency of the ACS2-deletion strain [1]: capable of recovering the growth deficiency | AADH activity (AADH): shown to have AADH activity

B4: EUTEec: eutE type AADH of Escherichia coli HS, GenBank YP_001459232.1 (protein)
chain: MNQQDIEQVVKAVLLKMQSSDTPPAAVHEMGVFASLDDAVAAAKVAQQGLKSVAMRQLAIAAIREAGEKHARDLAELAVSETGMGRVEDKFAKNVAQARGTPGVECLSPQVLTGDNGLTLIENAPWGVVASVTPSTNPAATLINNAISLIAAGNSVIFAPHPAAKKVSQRAITLLNQAIVAAGGPENLLVTVANPDIETAQRLFKFPGIGLLVVTGGEAVVEAARKHTNKRLIAAGAGNPPVVVDETADLARAAQSIVKGASFDNNIICADEKVLIVVDSVADELMRLMEGQHAVKLTAEQAQQLQPVLLKNIDERGKGTVSRDWVGRDAAKIAAAIGLNVPQETRLLFVETTAEHPFAVTELMMPVLPVVRVANVADAIALAVKLEGGCHHTAAMHSRNIENMNQMANAIDTSIFVKNGPCIAGLGLGGEGWTTMTITTPTGEGVTSARTFVRLRRCVLVDAFRIV
modifications: EUTEec
recovery of the growth deficiency of the ACS2-deletion strain [1]: capable of recovering the growth deficiency | AADH activity in yeast compared to the adhE-type AADHs (AADH; CEN.PK lab strain, multicopy plasmid, TEF1 promoter): much higher AADH activity | AADH activity (AADH): showed AADH activity

B5: AADHhs: eutE type AADH of Halanaerobium saccharolyticum DSM 6643, GenBank CCU77919.1 (protein)
chain: MKIKENELDKIVNQVISSLNNKQNSNDFNTKINYGIFSTMDEAIAEAVKAQACLQLNYSTEAREKIIKSIRKNVSKHVEKISEMAVEETDMGRIEDKIIKNNLAINKTPGTEDLRTEAFSGKKGLTIVEEAPFGVICSIAPVTNPTETIISNAISMIASCNGVVFNSHPGAKKVSKYIIEVLNKVIMEAGGPENLLTAVNEPTLQTVESCMRDDRIAMIVATGGPGVVNAALSSGKKAIGAGAGNPPVLVDDTVDLKRVAKDIINGASFDNNLPCTSEKAIVALESIADSLLNEMTNQNAQLVHDIKALERVILNDDGSINKALVGKDAAFILNKAGLKAKSEDLRLVIVDVDLRHPFVQKEQLMPVIPLVRAKNFNEAMEMGVDIEEGNRHTAIIHSKNVDNLTKFAKKIETTIYVKNAPSYAGIGAGGEGYATFTIAGPTGEGLTSARSFTRKRRCVLVDGFSII
modifications: AADHhs
recovery of the growth deficiency of the ACS2-deletion strain [1]: capable of recovering the growth deficiency

B6: AADHbs: eutE type AADH of Blautia sp. CAG: 237, GenBank CDB76812.1 (protein)
chain: MDEIMIKNIVREVLMKTNLDISCKSDQGVFEDVNDAIDAAYIAQRDWYMNYKVEDRRRIIEAIRVVARENAPMFAKMIHEETGMGRYEDKITKNLAVIDKTPGVECLVTDAISGDSGLMIEEQAPFGVIGAITPSTNPTETIINNTISMIGGGNAVVFNVHPGAKKVCAVCLQILHKTIVENGGPANLITMQRKPDMEAVNKLTASPKIRLMVGTGGMGMVNALLKSGKKTIGAGAGNPPVVVDDTADLDKAASEIYRGASFDNNLLCLAEKETFVMDNVADELIRKMCACGAHLITPQETEQLLKVIFLEKDGKYSVNKKWVGKDASLILESIGIKDADTRLVLCEVPHDHPFVLVEQLMPIMPIVRCKTFEDCVKYAVVAENGNRHTASMFSKNVDHMTRFAKEIETTIFTKNAATLVGVGIGGEGHTTMTIAGPTGEGLTCARSFTRRRRCMLADGGLRVI
modifications: AADHbs
recovery of the growth deficiency of the ACS2-deletion strain [1]: capable of recovering the growth deficiency

B7: AADHta: eutE type AADH of Tolumonas auensis DSM 9187, GenBank ACQ93307.1 (protein)
chain: MNNTELESLIRTILTEQLTPSATDTPACTASSVALFDDVDSAICAAHAAFLRYQEAPLKTRSAIIAAIRAEIAPCLSELAERAAAETGMGNTADKILKNKAALENTPGIEDLKTTALTGDEGMVLFEYSPFGVVGAVAPSTNPTETIINNSISMLAAGNAIYFSPHPGAKNISLWLIQKMEEIAFKVCGIHNLIVTVKEPTFEATQQMMAHDKIALLAITGGPGIVNMGLKSGKKVIGAGAGNPPCLVDETAEIVKAAQDIVAGASFDYNLPCIAEKSVIAVDCIADQLIQQMREFGAMQITDPQQIAQLREVCIQKGAANKSLVGKSPATILAAAGIPCPAKEPRLIILEVPANDPFVVTEQLMPVLPIVRVDNFEQGLQLALKVEDGLHHTAMMHSQNVSRLNKAAHLMQTSIFVKNGPSYAGIGVGAEGFTTFTIATPTGEGTTSARTFGRLRRCVLTNGFSIR
modifications: AADHta
recovery of the growth deficiency of the ACS2-deletion strain [1]: capable of recovering the growth deficiency

B8: AADHbw: eutE type AADH of Bilophila wadsworthia 3_1_6, GenBank EFV45545.1 (protein)
chain: MDVRQQDVERIVVEVLKKMMSDQPTAAATTVVAASGCDCGDFGLFDRLEDAVQAAEAAQKKISTVAMRDKIIAAIRKAGLENAKAFAEIAHNETGMGRVSDKIAKNILVCERTPGTECLSPMAISGDMGLTLIENAPWGVIASVTPSTNPTATVINNAISMIAGGNSVIFAPHPNAKRASQTAIQVLNKAIIEATGVANLLVAVKEPTIEVAQELFSHPRIKLLVVTGGEAVVAQARKVATMRLIAAGAGNPPVVVDETANIARAARSIYDGASFDNNIICADEKEIIAVDSIADQLKAEMKAIGAVEISLEQADAVARVVLRNYPQVEGGKAPNPNPKWVGRDAALIAKAAGIDVPDSCRLLIVDVKRDINHVFARVEQLMPVIPLLRAANVDEAIEWALILERGLSHTAGMHSRNIDNMDKMARAMNTSLFVKNGPHLAALGAGGEGWTTMTISTPTGEGVTCARSFVRLRRCCVVDNFRIV
modifications: AADHbw
recovery of the growth deficiency of the ACS2-deletion strain [1]: capable of recovering the growth deficiency | AADH activity (AADH): shown to have AADH activity
